Laboratory results reported in publication PMC10397247.

Key:
Assay in all cases: two-hybrid library CCmax;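 also: natural log of median RNA to DNA barcode read ratio; higher means stronger binding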
[1] = biological target: T1, P1-AA
T1 chain: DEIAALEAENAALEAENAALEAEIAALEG

[2] = biological target: T2, P10-AA; settings: mean of both orientations
T2 chain: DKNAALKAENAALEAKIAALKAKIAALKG

[3] = biological target: T3, P11-AA; settings: mean of both orientations
T3 chain: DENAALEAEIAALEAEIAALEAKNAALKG

[4] = biological target: T4, P12-AA; settings: mean of both orientations
T4 chain: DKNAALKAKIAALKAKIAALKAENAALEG

[5] = biological target: T5, P2-AA-12HAA-D; settings: mean of both orientations
T5 chain: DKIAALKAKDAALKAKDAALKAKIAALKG

[6] = biological target: T6, P2-AA-12HAA-E; settings: mean of both orientations
T6 chain: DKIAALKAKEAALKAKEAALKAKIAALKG

[7] = biological target: T7, P2-AA-12HAA-H; settings: mean of both orientations
T7 chain: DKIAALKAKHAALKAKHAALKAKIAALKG

[8] = biological target: T8, P2-AA-12HAA-I; settings: mean of both orientations
T8 chain: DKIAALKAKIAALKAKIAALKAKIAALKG

[9] = biological target: T9, P2-AA-12HAA-K; settings: mean of both orientations
T9 chain: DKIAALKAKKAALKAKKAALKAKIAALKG

[10] = biological target: T10, P2-AA-12HAA-L; settings: mean of both orientations
T10 chain: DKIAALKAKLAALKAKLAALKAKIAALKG

[11] = biological target: T11, P2-AA-12HAA-R; settings: mean of both orientations
T11 chain: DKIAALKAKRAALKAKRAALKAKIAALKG

[12] = biological target: T12, P2-AA-12HAA-S; settings: mean of both orientations
T12 chain: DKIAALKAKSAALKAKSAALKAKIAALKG

[13] = biological target: T13, P2-AA-12HAA-T; settings: mean of both orientations
T13 chain: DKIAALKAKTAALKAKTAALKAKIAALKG

[14] = biological target: T14, P2-AA-12HAA-V; settings: mean of both orientations
T14 chain: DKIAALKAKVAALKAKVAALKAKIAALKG

[15] = biological target: T15, P2-AA-12HAA-Y; settings: mean of both orientations
T15 chain: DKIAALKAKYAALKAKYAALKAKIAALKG

[16] = biological target: T16, P2-AA-12HGe-A; settings: mean of both orientations
T16 chain: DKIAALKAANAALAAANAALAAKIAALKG

[17] = biological target: T17, P2-AA-12HGe-D; settings: mean of both orientations
T17 chain: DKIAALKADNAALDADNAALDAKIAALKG

[18] = biological target: T18, P2-AA-12HGe-E; settings: mean of both orientations
T18 chain: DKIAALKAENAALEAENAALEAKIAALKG

[19] = biological target: T19, P2-AA-12HGe-H; settings: mean of both orientations
T19 chain: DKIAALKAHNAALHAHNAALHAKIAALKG

[20] = biological target: T20, P2-AA-12HGe-M; settings: mean of both orientations
T20 chain: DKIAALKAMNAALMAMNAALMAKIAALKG

[21] = biological target: T21, P2-AA-12HGe-Q; settings: mean of both orientations
T21 chain: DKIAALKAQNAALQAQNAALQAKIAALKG

[22] = biological target: T22, P2-AA-12HGe-R; settings: mean of both orientations
T22 chain: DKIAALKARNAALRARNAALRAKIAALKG

[23] = biological target: T23, P2-AA-12HGe-S; settings: mean of both orientations
T23 chain: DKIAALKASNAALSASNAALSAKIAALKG

[24] = biological target: T24, P2-AA-12HGe-T; settings: mean of both orientations
T24 chain: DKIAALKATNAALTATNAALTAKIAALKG

[25] = biological target: T25, P2-AA-12HGe-W; settings: mean of both orientations
T25 chain: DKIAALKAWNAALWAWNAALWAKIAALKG

[26] = biological target: T26, P2-AA-1HAA-D; settings: mean of both orientations
T26 chain: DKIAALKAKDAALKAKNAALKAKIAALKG

[27] = biological target: T27, P2-AA-1HAA-E; settings: mean of both orientations
T27 chain: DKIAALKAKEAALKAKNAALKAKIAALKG

[28] = biological target: T28, P2-AA-1HAA-H; settings: mean of both orientations
T28 chain: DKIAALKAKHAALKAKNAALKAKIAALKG

[29] = biological target: T29, P2-AA-1HAA-I; settings: mean of both orientations
T29 chain: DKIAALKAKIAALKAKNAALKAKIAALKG

[30] = biological target: T30, P2-AA-1HAA-R; settings: mean of both orientations
T30 chain: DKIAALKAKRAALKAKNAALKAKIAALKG

[31] = biological target: T31, P2-AA-1HAA-S; settings: mean of both orientations
T31 chain: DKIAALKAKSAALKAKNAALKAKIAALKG

[32] = biological target: T32, P2-AA-1HAA-T; settings: mean of both orientations
T32 chain: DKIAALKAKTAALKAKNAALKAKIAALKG

[33] = biological target: T33, P2-AA-1HAA-V; settings: mean of both orientations
T33 chain: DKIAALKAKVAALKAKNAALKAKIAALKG

[34] = biological target: T34, P2-AA-1HGe-A; settings: mean of both orientations
T34 chain: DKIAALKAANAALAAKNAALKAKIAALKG

[35] = biological target: T35, P2-AA-1HGe-D; settings: mean of both orientations
T35 chain: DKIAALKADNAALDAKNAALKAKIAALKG

[36] = biological target: T36, P2-AA-1HGe-M; settings: mean of both orientations
T36 chain: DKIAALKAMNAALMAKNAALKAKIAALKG

[37] = biological target: T37, P2-AA-1HGe-Q; settings: mean of both orientations
T37 chain: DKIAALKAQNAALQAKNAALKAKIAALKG

[38] = biological target: T38, P2-AA-1HGe-T; settings: mean of both orientations
T38 chain: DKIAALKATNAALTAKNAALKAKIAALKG

[39] = biological target: T39, P2-AA-1HGe-W; settings: mean of both orientations
T39 chain: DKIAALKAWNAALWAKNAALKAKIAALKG

[40] = biological target: T40, P2-AA; settings: mean of both orientations
T40 chain: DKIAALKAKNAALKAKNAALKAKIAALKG

[41] = biological target: T41, P3-AA; settings: mean of both orientations
T41 chain: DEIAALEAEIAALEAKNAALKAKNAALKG

[42] = biological target: T42, P4-AA; settings: mean of both orientations
T42 chain: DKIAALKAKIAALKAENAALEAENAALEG

[43] = biological target: T43, P7-AA; settings: mean of both orientations
T43 chain: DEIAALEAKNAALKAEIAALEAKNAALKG

[44] = biological target: T44, P8-AA; settings: mean of both orientations
T44 chain: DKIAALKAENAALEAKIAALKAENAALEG

[45] = biological target: T45, P9-AA; settings: mean of both orientations
T45 chain: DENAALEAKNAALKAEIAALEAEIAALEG

[46] = biological target: T46, zCON9_A
T46 chain: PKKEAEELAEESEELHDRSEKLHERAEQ

[47] = biological target: T47, zCON9_B; settings: mean of both orientations
T47 chain: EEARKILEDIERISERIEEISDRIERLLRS

[48] = biological target: T48, zCON9_D; settings: mean of both orientations
T48 chain: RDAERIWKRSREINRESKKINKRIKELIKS

B1: P1-AA (peptide)
chain: DEIAALEAENAALEAENAALEAEIAALEG
Q: B1 was tested. Which interaction score [1] did it give?
A: -1.9

Q: What about the interaction score [2] of the same binder?
A: -0.307

Q: And the interaction score [3]?
A: -1.27

Q: And the interaction score [4]?
A: -0.335

Q: And the interaction score [5]?
A: -1.91

Q: And the interaction score [6]?
A: -0.168

Q: And the interaction score [7]?
A: 1.67

Q: And the interaction score [8]?
A: 1.38

Q: And the interaction score [9]?
A: 1.32

Q: And the interaction score [10]?
A: 0.342

Q: What about the interaction score [11] of the same binder?
A: 1.86

Q: And the interaction score [12]?
A: 1.74

Q: And the interaction score [13]?
A: 1.34

Q: What about the interaction score [14] of the same binder?
A: 1.26

Q: And the interaction score [15]?
A: 1.57

Q: And the interaction score [16]?
A: 1.83

Q: What about the interaction score [17] of the same binder?
A: -1.71

Q: And the interaction score [18]?
A: 0.914

Q: What about the interaction score [19] of the same binder?
A: 2.06

Q: And the interaction score [20]?
A: 1.8

Q: What about the interaction score [21] of the same binder?
A: 1.62

Q: And the interaction score [22]?
A: 2.37

Q: And the interaction score [23]?
A: 0.568

Q: What about the interaction score [24] of the same binder?
A: 1.19

Q: And the interaction score [25]?
A: 1.66

Q: And the interaction score [26]?
A: 1.71

Q: And the interaction score [27]?
A: 1.78

Q: And the interaction score [28]?
A: 2.1

Q: And the interaction score [29]?
A: 2.01

Q: And the interaction score [30]?
A: 1.51

Q: And the interaction score [31]?
A: 1.81

Q: What about the interaction score [32] of the same binder?
A: 1.69

Q: And the interaction score [33]?
A: 1.86

Q: What about the interaction score [34] of the same binder?
A: 2.03

Q: And the interaction score [35]?
A: 1.9

Q: What about the interaction score [36] of the same binder?
A: 1.87

Q: And the interaction score [37]?
A: 1.97

Q: What about the interaction score [38] of the same binder?
A: 2.12

Q: What about the interaction score [39] of the same binder?
A: 2.42

Q: What about the interaction score [40] of the same binder?
A: 2.11

Q: And the interaction score [41]?
A: -0.804

Q: What about the interaction score [42] of the same binder?
A: -1.71

Q: What about the interaction score [43] of the same binder?
A: -1.7

Q: What about the interaction score [44] of the same binder?
A: -1.57

Q: What about the interaction score [45] of the same binder?
A: -1.49

Q: And the interaction score [46]?
A: -1.8

Q: And the interaction score [47]?
A: -1.67

Q: What about the interaction score [48] of the same binder?
A: -2.59
